This is an account of results in publication PMC4491848.

This assay addresses platelet membrane glycoprotein (GP) Ib on human platelets (human (endogenous in platelets)) (UniProt P07359).
Sequence of UniProt P07359 (P07359 17-652, chain 1 of 2): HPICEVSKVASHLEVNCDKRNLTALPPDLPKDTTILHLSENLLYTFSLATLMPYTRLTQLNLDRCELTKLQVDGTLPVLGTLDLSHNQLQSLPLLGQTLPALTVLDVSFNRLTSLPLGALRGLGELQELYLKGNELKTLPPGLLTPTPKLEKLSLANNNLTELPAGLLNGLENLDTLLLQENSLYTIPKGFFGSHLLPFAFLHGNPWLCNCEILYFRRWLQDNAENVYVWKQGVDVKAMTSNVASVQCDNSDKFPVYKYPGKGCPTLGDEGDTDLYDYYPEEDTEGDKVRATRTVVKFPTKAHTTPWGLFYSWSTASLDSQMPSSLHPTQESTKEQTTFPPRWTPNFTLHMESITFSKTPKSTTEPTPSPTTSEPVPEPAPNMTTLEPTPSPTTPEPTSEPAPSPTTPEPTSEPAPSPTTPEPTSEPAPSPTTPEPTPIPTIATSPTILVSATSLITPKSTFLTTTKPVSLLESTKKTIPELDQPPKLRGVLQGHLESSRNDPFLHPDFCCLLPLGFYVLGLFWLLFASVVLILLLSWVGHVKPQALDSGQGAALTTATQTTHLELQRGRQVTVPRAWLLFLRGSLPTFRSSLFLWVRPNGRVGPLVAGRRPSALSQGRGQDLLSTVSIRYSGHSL
Sequence of UniProt P07359 (P13224 26-206, chain 2 of 2, further chain): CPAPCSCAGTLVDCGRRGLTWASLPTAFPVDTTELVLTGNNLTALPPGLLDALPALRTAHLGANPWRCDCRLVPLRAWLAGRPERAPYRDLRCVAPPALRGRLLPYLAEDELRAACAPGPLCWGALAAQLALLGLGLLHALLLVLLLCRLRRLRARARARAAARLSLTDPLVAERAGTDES

In the case of natural Agkisacutacin (complex), the ristocetin-induced platelet aggregation rate in human platelet-rich plasma, dose series up to 3 μg/ml; value at the 3 μg/ml dose; the pair said to be blocked is GPIb and vWF was 3.46%.
Consider recombinant Agkisacutacin (complex), for which the ristocetin-induced platelet aggregation rate in human platelet-rich plasma, dose series up to 3 μg/ml; value at the 3 μg/ml dose; the pair said to be blocked is GPIb and vWF amounted to 5.65%.
